pKd: −log10 of the molar value.
Molecular target: human factor Xa (human)
Assay: prothrombinase activity titration

Chain of human factor Xa (human) (P00742 whole entry): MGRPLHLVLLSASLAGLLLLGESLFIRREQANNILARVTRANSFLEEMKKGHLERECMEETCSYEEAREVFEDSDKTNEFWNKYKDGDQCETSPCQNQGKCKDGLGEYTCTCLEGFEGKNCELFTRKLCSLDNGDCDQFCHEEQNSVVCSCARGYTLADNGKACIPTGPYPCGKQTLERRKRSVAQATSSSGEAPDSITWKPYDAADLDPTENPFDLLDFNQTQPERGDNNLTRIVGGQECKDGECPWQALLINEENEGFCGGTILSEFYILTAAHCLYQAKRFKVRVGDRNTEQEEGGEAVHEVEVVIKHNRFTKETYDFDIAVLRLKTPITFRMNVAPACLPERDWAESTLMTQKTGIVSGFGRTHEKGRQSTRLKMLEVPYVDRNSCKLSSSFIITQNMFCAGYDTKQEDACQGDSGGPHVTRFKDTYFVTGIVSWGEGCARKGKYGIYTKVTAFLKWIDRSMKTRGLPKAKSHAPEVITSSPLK

A pKd of 9.32 was found for “wild-type recombinant human fV activated with thrombin (rhfVa^WT) (from UniProt P12259 29-737; P12259 1574-2224) (complex)” in this work.
